# Entries after “also recorded” stand apart in the source; their conditions may differ. Like-named read-outs stand apart in the source and are kept apart here.
# T1: FBF-2 RBD + CT (Caenorhabditis elegans, UniProt Q09312)
# T1 construct: A cDNA fragment encoding C. elegans FBF-2 RBD + CT (residues 164-632) was cloned into the pSMT3 vector; His6-SUMO (N, cleaved yes); made in house; host or cells: E. coli BL21-CodonPlus (DE3)-RIL
# T1 sequence (Q09312 whole entry, looked up): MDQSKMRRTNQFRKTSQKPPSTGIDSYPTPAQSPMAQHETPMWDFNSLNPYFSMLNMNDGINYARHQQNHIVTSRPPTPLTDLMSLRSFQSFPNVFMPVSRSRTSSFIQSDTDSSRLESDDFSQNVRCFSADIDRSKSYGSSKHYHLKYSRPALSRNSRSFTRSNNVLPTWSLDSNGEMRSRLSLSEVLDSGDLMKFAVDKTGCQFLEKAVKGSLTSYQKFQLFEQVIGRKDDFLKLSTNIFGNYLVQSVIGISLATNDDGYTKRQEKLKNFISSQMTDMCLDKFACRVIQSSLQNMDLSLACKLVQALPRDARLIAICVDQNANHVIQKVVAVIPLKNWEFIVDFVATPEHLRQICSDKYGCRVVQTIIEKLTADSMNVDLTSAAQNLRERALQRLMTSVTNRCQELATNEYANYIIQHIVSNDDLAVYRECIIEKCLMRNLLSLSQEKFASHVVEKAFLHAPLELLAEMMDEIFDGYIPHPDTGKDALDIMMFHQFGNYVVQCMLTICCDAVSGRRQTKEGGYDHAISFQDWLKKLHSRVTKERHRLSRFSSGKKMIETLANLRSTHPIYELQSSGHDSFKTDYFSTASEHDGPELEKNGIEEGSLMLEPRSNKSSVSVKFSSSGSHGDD
# T2: FBF-2 RBD (Caenorhabditis elegans, UniProt Q09312)
# T2 construct: The FBF-2 RBD protein (residue 164-575) was purified as described previously; His6-SUMO (N, cleaved yes); made in house; host or cells: E. coli BL21-CodonPlus (DE3)-RIL (host inferred: b50 says the procedure was otherwise the same as for RBD + CT)
# T2 sequence (Q09312 whole entry, looked up): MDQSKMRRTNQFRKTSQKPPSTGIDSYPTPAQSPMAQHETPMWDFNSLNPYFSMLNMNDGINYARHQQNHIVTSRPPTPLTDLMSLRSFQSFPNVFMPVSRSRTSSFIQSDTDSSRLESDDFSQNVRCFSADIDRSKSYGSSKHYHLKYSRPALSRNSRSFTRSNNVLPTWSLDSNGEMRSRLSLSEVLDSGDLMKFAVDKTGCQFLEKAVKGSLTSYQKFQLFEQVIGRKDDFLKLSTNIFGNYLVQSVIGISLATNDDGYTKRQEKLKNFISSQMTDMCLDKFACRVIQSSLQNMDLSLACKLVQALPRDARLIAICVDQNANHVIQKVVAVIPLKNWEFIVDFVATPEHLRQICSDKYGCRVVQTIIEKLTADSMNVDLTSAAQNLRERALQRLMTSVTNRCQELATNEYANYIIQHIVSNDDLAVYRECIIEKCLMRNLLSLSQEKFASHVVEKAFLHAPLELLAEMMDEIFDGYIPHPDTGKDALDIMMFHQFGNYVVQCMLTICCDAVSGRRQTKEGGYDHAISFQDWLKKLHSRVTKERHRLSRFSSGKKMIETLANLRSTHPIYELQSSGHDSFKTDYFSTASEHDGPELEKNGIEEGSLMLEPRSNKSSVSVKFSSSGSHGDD
# T3: FBF-2 RBD (FBF-2 residues 164-575) (C. elegans, UniProt Q09312 164-575)
# T3 construct: The tag was cleaved with TEV protease; also called FBF-2^164–575; RBD alone; source: E. coli, purified (Ni-NTA, heparin, Superdex 75); not shown: His6-SUMO, N-terminal, cleaved
# T3 sequence (looked up): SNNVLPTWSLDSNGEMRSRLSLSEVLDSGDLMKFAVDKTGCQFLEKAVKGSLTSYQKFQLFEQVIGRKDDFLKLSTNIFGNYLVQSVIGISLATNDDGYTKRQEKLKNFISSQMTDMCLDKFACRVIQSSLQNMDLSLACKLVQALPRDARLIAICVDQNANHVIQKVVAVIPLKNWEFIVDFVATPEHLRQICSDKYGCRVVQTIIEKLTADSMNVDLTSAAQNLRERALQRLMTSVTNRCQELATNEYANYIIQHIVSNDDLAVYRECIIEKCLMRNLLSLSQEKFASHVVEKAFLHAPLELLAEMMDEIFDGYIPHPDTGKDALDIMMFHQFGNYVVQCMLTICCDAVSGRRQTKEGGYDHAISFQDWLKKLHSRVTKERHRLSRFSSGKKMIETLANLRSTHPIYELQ
# How the values were obtained:
# FBF-2 RBD + CT = molecular target: T1, FBF-2 RBD + CT; assay: ITC, peptide into FBF-2 RBD + CT, no RNA; type: binding, C. elegans; conditions: mean of two independent replicates; 20 °C, 20 mM HEPES pH 7.4, 150 mM NaCl, 0.5 mM TCEP; one-site model
# FBF-2 RBD + CT L610A = molecular target: T4, FBF-2 RBD + CT L610A (Caenorhabditis elegans, UniProt Q09312, L610A); type: binding, C. elegans; conditions: pH 7.4
# T4 construct: A cDNA fragment encoding C. elegans FBF-2 RBD + CT (residues 164-632) was cloned into the pSMT3 vector; His6-SUMO (N, cleaved yes); made in house; host or cells: E. coli BL21-CodonPlus (DE3)-RIL (as for wild type)
# FBF-2 RBD [1] = molecular target: T2, FBF-2 RBD; conditions: reported previously, cited from earlier work
# Excerpt: Given that the core residues of three distinct PIMs—FBF-2 CT, LST-1 A, and LST-1 B—all bind to the same site of FBF-2, we hypothesized that the intramolecular FBF-2 CT binding could compete with LST-1 A and LST-1 B binding. To assess that idea, we investigated how the CT affects the protein interaction affinities of the FBF-2 RBD to LST-1 A and LST-1 B, using isothermal titration calorimetry (ITC, Supplementary Table 3). No RNA was included in these experiments. We first measured the binding affinity of an isolated CT peptide and the FBF-2 RBD (no CT), by titrating the peptide, FBF-2^601–632, ... || Fig. 2 The FBF-2 CT competes with partner proteins for binding to the RBD. Representative isothermal titration calorimetry thermograms (top, differential power [DP] vs time) and corresponding titration curve-fitting graphs (bottom) are shown for interaction between a FBF-2 RBD and FBF-2 CT, c FBF-2 RBD + CT and LST-1 A, d FBF-2 RBD + CT and LST-1 B, e FBF-2 RBD and FBF-2 CT L610A, f FBF-2 RBD + CT L610A and LST-1 A, and g FBF-2 RBD + CT L610A and LST-1 B. Data points on the curve-fitting graphs are shown as open circles. b Previously reported mean Kd from two independent replicates with simila ... || We next compared the protein interaction affinities of LST-1 A or LST-1 B with either FBF-2 RBD + CT or RBD alone (Fig. 2c–g, Supplementary Table 3). For these experiments, we titrated the LST-1 peptide into an ITC cell containing either RBD + CT or RBD.
# gld-1 FBEa RNA = conditions: LST-1 peptide with FBF-2 RBD (no CT); cited from earlier work
# Excerpt: LST-1 is expressed in GSCs in response to signaling from the stem cell niche. The LST-1 protein is largely unstructured (Fig. 1b), including an N-terminal region that is sufficient for self-renewal of GSCs[22]. This LST-1 IDR region harbors two PUF Interacting Motifs (PIMs), LST-1 A and LST-1 B, that interact with FBF-2, each with a KxxL sequence[17],[22]. Crystal structures of FBF-2 bound to LST-1 A or B identify a seven-residue core region, including the KxxL sequence, that binds to FBF-2 with similar peptide backbone structure[17],[18]. The two LST-1 PIMs are biologically redundant for ... || If the FBF-2 CT reduces RNA-binding affinity (Fig. 3b) and competes with LST-1 for binding (Fig. 2c, d), why then does FBF-2 depend on LST-1 to repress RNAs in nematodes? To address this question, we explored RNA-binding affinities of FBF-2 RBD + CT in the presence of either LST-1 A or LST-1 B (Fig. 6; Supplementary Table 3). In contrast to results with FBF-2 RBD alone[17],[18], both LST-1 A and LST-1 B increased the RNA-binding affinity of FBF-2 RBD + CT.
# FBF-2 RBD [2] = molecular target: T2, FBF-2 RBD; type: binding, C. elegans; conditions: mean of two independent replicates, 20 °C, 20 mM HEPES pH 7.4, 150 mM NaCl, 0.5 mM TCEP, one-site model
# Method: To assess that idea, we investigated how the CT affects the protein interaction affinities of the FBF-2 RBD to LST-1 A and LST-1 B, using isothermal titration calorimetry (ITC, Supplementary Table 3). No RNA was included in these experiments.
# Experiments were performed at 20 °C using a MicroCal PEAQ-ITC Automated (Malvern Instruments) with a 200-μL standard cell and a 40-μL titration syringe. FBF-2 and LST-1 variants were prepared in a buffer of 20 mM HEPES pH 7.4, 150 mM NaCl, and 0.5 mM TCEP by gel filtration. LST-1 (100–400 µM) was titrated from the syringe into the cell containing FBF-2 (10–30 µM) in 2 µl aliquots. Experiments were performed in duplicate due to the limitation of the amount of protein needed. Data were analyzed using the MicroCal PEAQ-ITC Analysis Software (version 1.40) provided by the manufacturer with the one-site model (Table S3).
# Supplementary Table 3. Protein interaction affinities, stoichiometries, and thermodynamic parameters between FBF-2 CT/LST-1 variants and FBF-2 measured by ITC. Two technical replicates (n=2 independent experiments) were performed for each analysis with similar results, and the values are shown for each replicate. Source data are provided as a Source Data file. […]
# RBD+CT LST-1 A none Not detected
# RBD FBF-2 CT none Not detected
# 1 Reported previously 18.
# [3] = molecular target: T3, FBF-2 RBD (FBF-2 residues 164-575); assay: ITC; peptide (100–400 µM) titrated from the syringe into the cell containing FBF-2 (10–30 µM); 20 °C; 20 mM HEPES pH 7.4, 150 mM NaCl, 0.5 mM TCEP; no RNA; one-site model; mean of two replicates; conditions: both partners purified
# T4 sequence (Q09312 164-632 L610A): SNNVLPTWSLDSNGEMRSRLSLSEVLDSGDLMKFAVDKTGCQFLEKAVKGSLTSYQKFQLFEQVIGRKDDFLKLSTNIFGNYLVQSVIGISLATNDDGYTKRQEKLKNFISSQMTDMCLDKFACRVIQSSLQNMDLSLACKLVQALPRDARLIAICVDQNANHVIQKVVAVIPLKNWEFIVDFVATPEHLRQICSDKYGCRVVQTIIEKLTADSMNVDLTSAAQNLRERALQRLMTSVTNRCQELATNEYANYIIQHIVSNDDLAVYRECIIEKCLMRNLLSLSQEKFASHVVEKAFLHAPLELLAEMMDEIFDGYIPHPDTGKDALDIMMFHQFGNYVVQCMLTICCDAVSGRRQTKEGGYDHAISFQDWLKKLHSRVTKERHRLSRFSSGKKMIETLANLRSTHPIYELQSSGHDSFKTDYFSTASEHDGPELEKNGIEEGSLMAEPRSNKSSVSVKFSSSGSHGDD
molecule,measurement,setting,value
"LST-1 A: LST-1 A peptide, residues 19–50, expressed in E. coli (STIAYSKSQHEAPKQLLQLRSEIKPLIPLNQP; left off: His6-SUMO, N-terminal, cleaved)",Kd,FBF-2 RBD + CT,No binding; also recorded: too weak to be detected by ITC; also recorded: Not detected
same,∆G,FBF-2 RBD + CT L610A,-7.62 kcal/mol
same,-T∆S,"FBF-2 RBD + CT L610A; replicate 1, 20 °C",4.45 kcal/mol
same,∆G,"FBF-2 RBD + CT L610A; replicate 1, 20 °C",-7.5 kcal/mol
same,∆H,"FBF-2 RBD + CT L610A; replicate 1, 20 °C",-12 kcal/mol
same,-T∆S,"FBF-2 RBD + CT L610A; replicate 2, 20 °C",4.73 kcal/mol
same,∆H,"FBF-2 RBD + CT L610A; replicate 2, 20 °C",-12.4 kcal/mol
same,-T∆S,FBF-2 RBD [1]; replicate 1,6.07 kcal/mol
same,∆G,FBF-2 RBD [1]; replicate 1,-7.62 kcal/mol
same,∆H,FBF-2 RBD [1]; replicate 1,-13.7 kcal/mol
same,-T∆S,FBF-2 RBD [1]; replicate 2,6 kcal/mol
same,∆G,FBF-2 RBD [1]; replicate 2,-7.65 kcal/mol
same,∆H,FBF-2 RBD [1]; replicate 2,-13.6 kcal/mol
same,effect on RNA-binding affinity of FBF-2 RBD,gld-1 FBEa RNA,no effect on RNA-binding affinity
FBF-2 CT L610A: FBF-2 CT (601-632) with L610A (NGIEEGSLMAEPRSNKSSVSVKFSSSGSHGDD),Kd,FBF-2 RBD [2],No binding; also recorded: Not detected
same,Kd,FBF-2 RBD [2]; listed as CT peptide with L610A,No binding was detected
"NGIEEGSLMLEPRSNKSSVSVKFSSSGSHGDD (peptide, UniProt Q09312 601-632, looked up, holds the PIM SLMLEPR (607-613); The tag was cleaved with Ulp1 protease; also called FBF-2^601–632; source: E. coli BL21-CodonPlus (DE3)-RIL, purified (Ni-NTA, HiTrap Q flow-through, Superdex 75); not shown: His6-SUMO, N-terminal, cleaved) [FBF-2 CT peptide (FBF-2 residues 601-632)]",Kd,[3],35 µM
